In the assay the target is human PD1 expressed on Jurkat/AP1-Luc/hPD1 cells (human) (UniProt Q15116). Kind of assay: cell-based or functional assay.
Sequence of human PD1 expressed on Jurkat/AP1-Luc/hPD1 cells (human) (Q15116 25-288): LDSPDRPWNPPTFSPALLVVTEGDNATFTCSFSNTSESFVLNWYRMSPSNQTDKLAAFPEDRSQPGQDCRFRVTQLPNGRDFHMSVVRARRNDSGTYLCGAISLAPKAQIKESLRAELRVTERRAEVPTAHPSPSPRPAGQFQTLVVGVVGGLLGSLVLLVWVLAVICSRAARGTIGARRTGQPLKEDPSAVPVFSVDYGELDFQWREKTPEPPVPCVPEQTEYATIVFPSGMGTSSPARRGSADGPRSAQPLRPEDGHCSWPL

B1: REGN2810 (cemiplimab, LIBTAYO), anti-PD1 antibody (antibody, INN chains, looked up, V domains shown)
VH: EVQLLESGGVLVQPGGSLRLSCAASGFTFSNFGMTWVRQAPGKGLEWVSGISGGGRDTYFADSVKGRFTISRDNSKNTLYLQMNSLKGEDTAVYYCVKWGNIYFDYWGQGTLVTVSS
VL: DIQMTQSPSSLSASVGDSITITCRASLSINTFLNWYQQKPGKAPNLLIYAASSLHGGVPSRFSGSGSGTDFTLTIRTLQPEDFATYYCQQSSNTPFTFGPGTVVDFR
In the case of B1, the AP-1 luciferase EC50, WSU-DLCL2/hPD-L1 + Jurkat/AP1-Luc/hPD1 is 0.29 nM and the AP-1 luciferase MAX (RLU), WSU-DLCL2/hPD-L1 + Jurkat/AP1-Luc/hPD1 was found to be 1.1e+06 RLU.
